This is an account of results in PMC4703070, “cryo-EM structures of the E. coli replicative DNA polymerase reveal its dynamic interactions with the DNA sliding clamp, exonuclease and τ” (eLife, 2015).

For one data set, the target named is T1, Pol IV (Escherichia coli, UniProt Q47155 1-351).
T1 sequence: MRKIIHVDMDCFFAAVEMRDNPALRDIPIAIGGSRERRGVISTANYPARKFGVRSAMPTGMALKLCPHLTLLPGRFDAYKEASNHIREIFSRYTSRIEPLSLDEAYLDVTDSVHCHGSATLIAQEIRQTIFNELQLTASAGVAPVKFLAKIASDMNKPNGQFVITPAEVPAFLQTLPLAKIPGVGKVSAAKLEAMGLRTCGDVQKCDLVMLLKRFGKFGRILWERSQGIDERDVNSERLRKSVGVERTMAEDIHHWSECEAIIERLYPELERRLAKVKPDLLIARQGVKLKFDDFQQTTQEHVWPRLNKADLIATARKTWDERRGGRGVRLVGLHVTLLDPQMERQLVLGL
Description: EMSA; 2.5 μM protein, 5 nM DNA; EMSA: 20 mM Tris pH 7.5, 4% glycerol, 5 mM DTT, 40 μg/ml BSA, 40 mM K glutamate, 10 min room temperature, native 6% gel; cryo-EM: 25 mM Hepes pH 7.5, 50 mM K glutamate, 3 mM Mg acetate, 2 mM DTT, ~4 μM complex + 20 μM DNA, room temperature, then Tween 20. The note with it: protein: recombinant; label: 6-FAM at 5' end of primer strand; 25 bp duplex, 5' overhang 4 nt on template strand.

In another data set the target is Pol I (Klenow fragment) (Escherichia coli, UniProt P00582 324-928). The description is as above. The note with it: protein: recombinant; label: 6-FAM at 5' end of primer strand; 25 bp duplex, 5' overhang 4 nt on template strand.
Data set [1] has as its target PolIIIα (clamp-binding motif QADMF to QLDLF);DNA sliding clamp β;exonuclease ε (clamp-binding motif QTSMAF to … (Escherichia coli;Escherichia …, UniProt P10443;P0A988;P03007;P06710 1-1160;1-366;1-243;500-643, A921L;M923L||T183L;M185L;A186P;F187L|)). Description: cryo-EM; 3 mM Mg acetate; 8.0 Å DNA-bound map (7.3 Å for class without visible tail/τ500); EMSA: 20 mM Tris pH 7.5, 4% glycerol, 5 mM DTT, 40 μg/ml BSA, 40 mM K glutamate, 10 min room temperature, native 6% gel; cryo-EM: 25 mM Hepes pH 7.5, 50 mM K glutamate, 3 mM Mg acetate, 2 mM DTT, ~4 μM complex + 20 μM DNA, room temperature, then Tween 20. The note with it: protein: recombinant;recombinant;recombinant;recombinant; tags: ;;;His-tag removed (HRV 3C); copies: 1;2;1;1; 25 bp duplex, 5' overhang 4 nt on template strand. For orientation: Mobility shift assays separate free from complexed probe on a gel.

Data set [2] has as its target T2, E. coli DNA polymerase III α with improved clamp binding motif (PolIIIα^QLDLF) (E. coli, UniProt P10443 1-1160, 920-924 QADMF to QLDLF).
T2 construct: DNA polymerase III subunit α (PolIIIα), E. coli; It says that His-tags were removed with 3C protease but not which of the proteins carried one; PDB 2HNH lacks the C-terminal tail; source: E. coli (DE3) BL21, purified (as described in Toste Rêgo et al., 2013)
Description: cryo-EM structure; four-protein complex assembled at 15 μM, gel filtration in 25 mM Hepes pH 7.5, 50 mM potassium glutamate, 3 mM magnesium acetate, 2 mM DTT; peak fraction (~4 μM) with 20 μM 25 bp DNA substrate; DNA-free (8.3 Å), DNA-bound (8.0 Å) and DNA-bound without tail (7.3 Å) classes from a single data set; crystal and NMR structures fitted as rigid bodies. The note with it: both partners purified. Background: In gel filtration, larger molecules generally elute earlier.

In data set [3] the target is T3, E. coli DNA sliding clamp β (E. coli, UniProt P0A988 1-366).
T3 construct: DNA polymerase III β subunit (DNA sliding clamp), E. coli; dimeric; It says that His-tags were removed with 3C protease but not which of the proteins carried one; also called β subunit; source: E. coli (DE3) BL21, purified (as described in Toste Rêgo et al., 2013)
The data set is described as above. The note with it: both partners purified.

B1: 25 bp primer-template with 4 nt overhang (EMSA) (dsDNA)
DNA 1: TCAGGAGTCCTTCGTCCTAGTACTACTCC
DNA 2: GGAGTAGTACTAGGACGAAGGACTC
modifications: phosphorothioate at 3' terminal bond (primer; strand implied)
B1: the binding result with Pol IV and in the data set with Pol I (Klenow fragment) was “binds” throughout.

B2: 25 bp primer-template with 4 nt overhang (cryo-EM) (dsDNA)
DNA 1: TCAGGAGTCCTTCGTCCTAGTACTACTCC
DNA 2: GGAGTAGTACTAGGACGAAGGACTC
On to B2, for which the binding result in data set [1] is listed as “binds”.

B3: τ500 (the polymerase-binding domain of τ: residues 500–643) (domain or fragment, E. coli, UniProt P06710 500-643, looked up)
chain: ALEHEKTPELAAKLAAEAIERDPWAAQVSQLSLPKLVEQVALNAWKEESDNAVCLHLRSSQRHLNNRGAQQKLAEALSMLKGSTVELTIVEDDNPAVRTPLEWRQAIYEEKLAQARESIIADNNIQTLRRFFDAELDEESIRPI
notes: PDB 2AYA (NMR) holds residues 500-621 only; His-tags were removed with human rhinovirus 3C protease; also called τc; C-terminal domain of the clamp loader subunit τ; source: E. coli (DE3) BL21, purified (Histrap HP, Resource S, Superdex 75)
Take B3: the binding result in data set [2] is “binds”.

B4: E. coli proofreading exonuclease ε with improved clamp binding motif (exonuclease^QLSLPL) (enzyme, UniProt P03007 1-243, looked up)
chain: MSTAITRQIVLDTETTGMNQIGAHYEGHKIIEIGAVEVVNRRLTGNNFHVYLKPDRLVDPEAFGVHGIADEFLLDKPTFAEVADEFMDYIRGAELVIHNAAFDIGFMDYEFSLLKRDIPKTNTFCKVTDSLAVARKMFPGKRNSLDALCARYEIDNSKRTLHGALLDAQILAEVYLAMTGGQLSLPLAMEGETQQQQGEATIQRIVRQASKLRVVFATDEEIAAHEARLDLVQKKGGSCLWRA
notes: DNA polymerase III subunit ε (proofreading exonuclease), E. coli; residues 190-207 are a missing loop; source: E. coli (DE3) BL21, purified (as described in Toste Rêgo et al., 2013)
For the molecule B4, the binding result in data set [3] and in data set [2] was “binds” each time.
